Results from paper PMC3169606, “Pub1p C-Terminal RRM Domain Interacts with Tif4631p through a Conserved Region Neighbouring the Pab1p Binding Site” (PLoS ONE, 2011).

T1: Pub1p R12 (RRM1-RRM2) (Saccharomyces cerevisiae, UniProt P32588 32-242)
T1 sequence: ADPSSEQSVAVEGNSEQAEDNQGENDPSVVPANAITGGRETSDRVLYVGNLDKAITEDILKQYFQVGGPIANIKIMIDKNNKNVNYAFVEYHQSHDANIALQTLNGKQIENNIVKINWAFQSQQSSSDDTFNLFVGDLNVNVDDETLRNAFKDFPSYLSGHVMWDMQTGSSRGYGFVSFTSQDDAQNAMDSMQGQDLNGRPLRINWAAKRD

T2: Pub1p R3 (RRM3, TRRM) (Saccharomyces cerevisiae, UniProt P32588 315-414)
T2 sequence: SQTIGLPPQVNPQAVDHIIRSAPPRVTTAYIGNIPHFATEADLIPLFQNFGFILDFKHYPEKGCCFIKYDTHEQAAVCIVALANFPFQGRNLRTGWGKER

T3: Tif4631p (1–402) (Saccharomyces cerevisiae, UniProt P39935 1-402)
T3 construct: Cloned 'following equivalent methods' to the Pub1p constructs (same modified pET28 vector); Unlabelled or 15N-labelled according to the NMR experiment; source: E. coli BL21(DE3), purified (HisTrap, TEV digestion, second nickel column, anion exchange MonoQ); not shown: thioredoxin A, N-terminal, cleaved; His6, internal, cleaved
T3 sequence (looked up): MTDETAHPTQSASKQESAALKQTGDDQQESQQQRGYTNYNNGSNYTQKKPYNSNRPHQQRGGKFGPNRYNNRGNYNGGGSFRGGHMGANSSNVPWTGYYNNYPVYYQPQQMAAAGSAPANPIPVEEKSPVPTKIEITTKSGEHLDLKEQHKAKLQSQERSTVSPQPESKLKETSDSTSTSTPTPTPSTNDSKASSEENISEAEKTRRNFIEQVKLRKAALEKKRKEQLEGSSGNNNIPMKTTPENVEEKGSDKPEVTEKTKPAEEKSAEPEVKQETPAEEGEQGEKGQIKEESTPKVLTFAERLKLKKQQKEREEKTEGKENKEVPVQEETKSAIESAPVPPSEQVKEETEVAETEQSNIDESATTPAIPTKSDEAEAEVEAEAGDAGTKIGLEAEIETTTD

T4: Tif4631p (1–184) (Saccharomyces cerevisiae, UniProt P39935 1-184)
T4 construct: Tif4631p (yeast eIF4G1), Saccharomyces cerevisiae, residues 1-184; Cloned 'following equivalent methods' to the Pub1p constructs; source: E. coli BL21(DE3), purified (HisTrap, TEV digestion, second nickel column, anion exchange MonoQ); not shown: thioredoxin A, N-terminal, cleaved; His6, internal, cleaved
T4 sequence (looked up): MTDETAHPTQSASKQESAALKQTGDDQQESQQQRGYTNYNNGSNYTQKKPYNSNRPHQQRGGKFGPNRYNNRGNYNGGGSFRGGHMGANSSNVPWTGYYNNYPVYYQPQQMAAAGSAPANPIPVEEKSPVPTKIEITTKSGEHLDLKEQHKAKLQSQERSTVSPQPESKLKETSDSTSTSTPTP

B1: Pub1p R3 (RRM3 domain, residues 315–414) (domain or fragment, Saccharomyces cerevisiae, UniProt P32588 315-414, looked up)
chain: T2 sequence
notes: also called Pub1p TRRM; Pub1p RRM3; source: E. coli BL21(DE3), purified (HisTrap, TEV digestion, second nickel column, cation exchange); not shown: thioredoxin A, N-terminal, cleaved; His6, internal, cleaved

Columns and labels:
Pub1p R12 (RRM1-RRM2) [1] = target: T1, Pub1p R12 (RRM1-RRM2); assay: NMR titration; intermediate exchange; 25 mM potassium phosphate pH 7.0 (6.5-7.0 in general NMR methods), 25 mM NaCl, 0.5 mM DTT, 25 C; 100 µM protein, RNA up to 400 µM (R3) or 1:1 (R12); settings: protein: recombinant; tags: TrxA-6xHis tag removed by TEV; single strand
Pub1p R3 (RRM3, TRRM) [2] = target: T2, Pub1p R3 (RRM3, TRRM); assay: NMR titration; 2:1 protein:RNA; 25 mM potassium phosphate pH 7.0 (6.5-7.0 in general NMR methods), 25 mM NaCl, 0.5 mM DTT, 25 C; 100 µM protein, RNA up to 400 µM (R3) or 1:1 (R12); settings: protein: recombinant; tags: TrxA-6xHis tag removed by TEV; chain copies: 2; single strand
Pub1p R12 (RRM1-RRM2) [3] = target: T1, Pub1p R12 (RRM1-RRM2); assay: NMR titration; slow exchange; 25 mM potassium phosphate pH 7.0 (6.5-7.0 in general NMR methods), 25 mM NaCl, 0.5 mM DTT, 25 C; 100 µM protein, RNA up to 400 µM (R3) or 1:1 (R12); settings: protein: recombinant; tags: TrxA-6xHis tag removed by TEV; single strand
Tif4631p (1–402) = target: T3, Tif4631p (1–402); assay: NMR titration; 1H-15N HSQC of 100 µM 15N-labelled Tif4631p (1–402) with 120 µM unlabelled Pub1p R3 added; 25 mM potassium phosphate pH 7.0, 25 mM NaCl, 0.1 mM DTT, 25°C; settings: both partners purified
Tif4631p (1–184) = target: T4, Tif4631p (1–184); assay: cross-linking; glutaraldehyde by vapour diffusion, 16 h at 4°C; Pub1p proteins 10 µM, Tif4631p (1–402) 1 µM, Tif4631p (1–184) 4 µM; 25 mM potassium phosphate, 150 mM NaCl, 0.1 mM DTT, pH 8.0; 15% SDS-PAGE, silver stain; settings: both partners purified
Pub1p R3 (RRM3, TRRM) [4] = target: T2, Pub1p R3 (RRM3, TRRM); assay: NMR titration; 1:1 protein:RNA; 25 mM potassium phosphate pH 7.0 (6.5-7.0 in general NMR methods), 25 mM NaCl, 0.5 mM DTT, 25 C; 100 µM protein, RNA up to 400 µM (R3) or 1:1 (R12); settings: protein: recombinant; tags: TrxA-6xHis tag removed by TEV; chain copies: 2; single strand
Pub1p R3 (RRM3, TRRM) [5] = target: T2, Pub1p R3 (RRM3, TRRM); assay: NMR titration; 1:1 protein:RNA; Kd n.d.; 25 mM potassium phosphate pH 7.0 (6.5-7.0 in general NMR methods), 25 mM NaCl, 0.5 mM DTT, 25 C; 100 µM protein, RNA up to 400 µM (R3) or 1:1 (R12); settings: protein: recombinant; tags: TrxA-6xHis tag removed by TEV; chain copies: 2; single strand

Row | Binder | Kd (Pub1p R3 (RRM3, TRRM) [2]) | binding result (Pub1p R3 (RRM3, TRRM) [5]) | also measured
1 | UAUAUAUAUAUAUA (ssRNA) [(UA)7] | < 1 µM | – | Kd (Pub1p R12 (RRM1-RRM2) [1]): 0.894 µM
2 | UUUUUUUUUUUUUU (ssRNA) [U14] | 2.16 µM | – | Kd (Pub1p R12 (RRM1-RRM2) [3]): < 0.25 µM
3 | AAAAAAAAAAAAAA (ssRNA) [A14] | 78.5 µM | – | –
4 | B1 | – | – | binding result (Tif4631p (1–402)): binds; binding result (Tif4631p (1–184)): binds
5 | AGAGAGAG (ssRNA) [(AG)4] | – | – | Kd (Pub1p R3 (RRM3, TRRM) [4]): 88.3 µM
6 | UUUUUUUUUUUU (ssRNA) [U12] | – | binds | –
7 | CUCUCUCUCUCU (ssRNA) [(CU)6] | – | – | Kd (Pub1p R3 (RRM3, TRRM) [4]): 18.8 µM
8 | UAUAUAUAUAUA (ssRNA) [(UA)6] | – | binds | –
9 | UUUUUUUUUU (ssRNA) [U10] | – | binds | –
